Test results reported in patent publication US20170275666A1, “Methods for Preparing Rebaudioside I and Uses” (The Coca-Cola Company, priority 2014, published 2017).

Test: Directed evolution of UGT76G1, conversion of Rebaudioside D to Rebaudioside M (round 1)
Type: biochemical
Conditions: 0.5 mM Rebaudioside D, 2.5 mM UDP-Glucose, 100 μL fresh lysate, 30° C., pH 7.2
Excerpt: Starting from the amino acid sequence of UGT76G1, as is described in Genbank (AAR06912.1), different mutations at various amino acid positions were identified that could alter the activity of the enzyme for the transformation of Rebaudioside D (Reb D) to Rebaudioside M (Reb M). This list of mutations, designed by DNA2.0 ProteinGPS™ strategy, was subsequently used to synthesize 96 variant genes that contained 3, 4 or 5 of these mutations that were codon-optimized for expression in E. coli. The genes were subcloned in the pET30a+ plasmid and used for transformation of E. coli BL21 (DE3) chemically competent cells. The obtained cells were grown in Petri-dishes on solid LB medium in the presence of Kanamycin. Suitable colonies were selected and allowed to grow in liquid LB medium in tubes. Glycerol was added to the suspension as cryoprotectant and 400 μL aliquots were stored at −20° C. and at −80° C.
These storage aliquots of E. coli BL21(DE3) containing the pET30a+_UGT76G1var plasmids were thawed and added to LBGKP medium (20 g/L Luria Broth Lennox; 50 mM PIPES buffer pH 7.00; 50 mM Phosphate buffer pH 7.00; 2.5 g/L glucose and 50 mg/L of Kanamycine). This culture was allowed to shake in a 96 microtiter plate at 135 rpm at 30° C. for 8 h.
3.95 mL of production medium containing 60 g/L of Overnight Express™ Instant TB medium (Novagen®), 10 g/L of glycerol and 50 mg/L of Kanamycin was inoculated with 50 μL of above described culture. In a 48 deepwell plate the resulting culture was allowed to stir at 20° C. The cultures gave significant growth and a good OD (600 nm; 1 cm) was obtained. After 44 h, the cells were harvested by centrifugation and frozen.
Lysis was performed by addition of Bugbuster® Master mix (Novagen®) to the thawed cells and the lysate was recovered by centrifugation. Activity tests were performed with 100 μL of fresh lysate that was added to a solution of Rebaudioside D (final concentration 0.5 mM), MgCl2 (final concentration 3 mM) and UDP-Glucose (final concentration 2.5 mM) in 50 mM phosphate buffer pH 7.2.
The reaction was allowed to run at 30° C. and samples were taken after 2, 4, 7 and 24 h. to determine conversion and initial rate by HPLC (CAD detection) using the analytical method that was described above for the transformation of Rebaudioside D to Rebaudioside M. The results are depicted in the following table.

| Molecule | Conversion Reb D to Reb M after 24 h (%) | initial rate (Reb M area/min) |
| --- | --- | --- |
| UGT76G1var8: UGT76G1 variant, mutations E224A_Q266S_Q342E (protein, UniProt Q6VAB4 1-458, looked up, variant E224A Q266S Q342E) UDP-glycosyltransferase 76G1: MENKTETTVRRRRRIILFPVPFQGHINPILQLANVLYSKGFSITIFHTNFNKPKTSNYPHFTFRFILDNDPQDERISNLPTHGPLAGMRIPIINEHGADELRRELELLMLASEEDEEVSCLITDALWYFAQSVADSLNLRRLVLMTSSLFNFHAHVSLPQFDELGYLDPDDKTRLEEQASGFPMLKVKDIKSAYSNWQILKEILGKMIKQTKASSGVIWNSFKALEESELETVIREIPAPSFLIPLPKHLTASSSSLLDHDRTVFSWLDQQPPSSVLYVSFGSTSEVDEKDFLEIARGLVDSKQSFLWVVRPGFVKGSTWVEPLPDGFLGERGRIVKWVPQEEVLAHGAIGAFWTHSGWNSTLESVCEGVPMIFSDFGLDQPLNARYMSDVLKVGVYLENGWERGEIANAIRRVMVDEEGEYIRQNARVLKQKADVSLMKGGSSYESLESLVSYISSL | 0.5 | 2.3E+04 |
| UGT76G1var11: UGT76G1 variant, mutations F22L_A33G_V310I (protein, UniProt Q6VAB4 1-458, looked up, variant F22L A33G V310I) UDP-glycosyltransferase 76G1: MENKTETTVRRRRRIILFPVPLQGHINPILQLGNVLYSKGFSITIFHTNFNKPKTSNYPHFTFRFILDNDPQDERISNLPTHGPLAGMRIPIINEHGADELRRELELLMLASEEDEEVSCLITDALWYFAQSVADSLNLRRLVLMTSSLFNFHAHVSLPQFDELGYLDPDDKTRLEEQASGFPMLKVKDIKSAYSNWQILKEILGKMIKQTKASSGVIWNSFKELEESELETVIREIPAPSFLIPLPKHLTASSSSLLDHDRTVFQWLDQQPPSSVLYVSFGSTSEVDEKDFLEIARGLVDSKQSFLWVIRPGFVKGSTWVEPLPDGFLGERGRIVKWVPQQEVLAHGAIGAFWTHSGWNSTLESVCEGVPMIFSDFGLDQPLNARYMSDVLKVGVYLENGWERGEIANAIRRVMVDEEGEYIRQNARVLKQKADVSLMKGGSSYESLESLVSYISSL | 0.4 | 3.8E+04 |
| UGT76G1var12: UGT76G1 variant, mutations L243P_K303G_A352G (protein, UniProt Q6VAB4 1-458, looked up, variant L243P K303G A352G) UDP-glycosyltransferase 76G1: MENKTETTVRRRRRIILFPVPFQGHINPILQLANVLYSKGFSITIFHTNFNKPKTSNYPHFTFRFILDNDPQDERISNLPTHGPLAGMRIPIINEHGADELRRELELLMLASEEDEEVSCLITDALWYFAQSVADSLNLRRLVLMTSSLFNFHAHVSLPQFDELGYLDPDDKTRLEEQASGFPMLKVKDIKSAYSNWQILKEILGKMIKQTKASSGVIWNSFKELEESELETVIREIPAPSFPIPLPKHLTASSSSLLDHDRTVFQWLDQQPPSSVLYVSFGSTSEVDEKDFLEIARGLVDSGQSFLWVVRPGFVKGSTWVEPLPDGFLGERGRIVKWVPQQEVLAHGAIGGFWTHSGWNSTLESVCEGVPMIFSDFGLDQPLNARYMSDVLKVGVYLENGWERGEIANAIRRVMVDEEGEYIRQNARVLKQKADVSLMKGGSSYESLESLVSYISSL | 0.5 | 8.7E+04 |
| UGT76G1var13: UGT76G1 variant, mutations L243A_S357C_A385T (protein, UniProt Q6VAB4 1-458, looked up, variant L243A S357C A385T) UDP-glycosyltransferase 76G1: MENKTETTVRRRRRIILFPVPFQGHINPILQLANVLYSKGFSITIFHTNFNKPKTSNYPHFTFRFILDNDPQDERISNLPTHGPLAGMRIPIINEHGADELRRELELLMLASEEDEEVSCLITDALWYFAQSVADSLNLRRLVLMTSSLFNFHAHVSLPQFDELGYLDPDDKTRLEEQASGFPMLKVKDIKSAYSNWQILKEILGKMIKQTKASSGVIWNSFKELEESELETVIREIPAPSFAIPLPKHLTASSSSLLDHDRTVFQWLDQQPPSSVLYVSFGSTSEVDEKDFLEIARGLVDSKQSFLWVVRPGFVKGSTWVEPLPDGFLGERGRIVKWVPQQEVLAHGAIGAFWTHCGWNSTLESVCEGVPMIFSDFGLDQPLNTRYMSDVLKVGVYLENGWERGEIANAIRRVMVDEEGEYIRQNARVLKQKADVSLMKGGSSYESLESLVSYISSL | 0.2 | −3.3E+04 |
| UGT76G1var14: UGT76G1 variant, mutations A239I_F265I_V396F (protein, UniProt Q6VAB4 1-458, looked up, variant A239I F265I V396F) UDP-glycosyltransferase 76G1: MENKTETTVRRRRRIILFPVPFQGHINPILQLANVLYSKGFSITIFHTNFNKPKTSNYPHFTFRFILDNDPQDERISNLPTHGPLAGMRIPIINEHGADELRRELELLMLASEEDEEVSCLITDALWYFAQSVADSLNLRRLVLMTSSLFNFHAHVSLPQFDELGYLDPDDKTRLEEQASGFPMLKVKDIKSAYSNWQILKEILGKMIKQTKASSGVIWNSFKELEESELETVIREIPIPSFLIPLPKHLTASSSSLLDHDRTVIQWLDQQPPSSVLYVSFGSTSEVDEKDFLEIARGLVDSKQSFLWVVRPGFVKGSTWVEPLPDGFLGERGRIVKWVPQQEVLAHGAIGAFWTHSGWNSTLESVCEGVPMIFSDFGLDQPLNARYMSDVLKVGFYLENGWERGEIANAIRRVMVDEEGEYIRQNARVLKQKADVSLMKGGSSYESLESLVSYISSL | 5.3 | 1.5E+06 |
| UGT76G1var9: UGT76G1 variant, mutations E231A_D301N_G348P (protein, UniProt Q6VAB4 1-458, looked up, variant E231A D301N G348P) UDP-glycosyltransferase 76G1: MENKTETTVRRRRRIILFPVPFQGHINPILQLANVLYSKGFSITIFHTNFNKPKTSNYPHFTFRFILDNDPQDERISNLPTHGPLAGMRIPIINEHGADELRRELELLMLASEEDEEVSCLITDALWYFAQSVADSLNLRRLVLMTSSLFNFHAHVSLPQFDELGYLDPDDKTRLEEQASGFPMLKVKDIKSAYSNWQILKEILGKMIKQTKASSGVIWNSFKELEESELATVIREIPAPSFLIPLPKHLTASSSSLLDHDRTVFQWLDQQPPSSVLYVSFGSTSEVDEKDFLEIARGLVNSKQSFLWVVRPGFVKGSTWVEPLPDGFLGERGRIVKWVPQQEVLAHPAIGAFWTHSGWNSTLESVCEGVPMIFSDFGLDQPLNARYMSDVLKVGVYLENGWERGEIANAIRRVMVDEEGEYIRQNARVLKQKADVSLMKGGSSYESLESLVSYISSL | 52.0 | 4.9E+07 |
| UGT76G1var15: UGT76G1 variant, mutations F41L_L246F_Q425E (protein, UniProt Q6VAB4 1-458, looked up, variant F41L L246F Q425E) UDP-glycosyltransferase 76G1: MENKTETTVRRRRRIILFPVPFQGHINPILQLANVLYSKGLSITIFHTNFNKPKTSNYPHFTFRFILDNDPQDERISNLPTHGPLAGMRIPIINEHGADELRRELELLMLASEEDEEVSCLITDALWYFAQSVADSLNLRRLVLMTSSLFNFHAHVSLPQFDELGYLDPDDKTRLEEQASGFPMLKVKDIKSAYSNWQILKEILGKMIKQTKASSGVIWNSFKELEESELETVIREIPAPSFLIPFPKHLTASSSSLLDHDRTVFQWLDQQPPSSVLYVSFGSTSEVDEKDFLEIARGLVDSKQSFLWVVRPGFVKGSTWVEPLPDGFLGERGRIVKWVPQQEVLAHGAIGAFWTHSGWNSTLESVCEGVPMIFSDFGLDQPLNARYMSDVLKVGVYLENGWERGEIANAIRRVMVDEEGEYIRENARVLKQKADVSLMKGGSSYESLESLVSYISSL | 5.6 | 1.5E+06 |
| UGT76G1var16: UGT76G1 variant, mutations F265I_P272A_I335V (protein, UniProt Q6VAB4 1-458, looked up, variant F265I P272A I335V) UDP-glycosyltransferase 76G1: MENKTETTVRRRRRIILFPVPFQGHINPILQLANVLYSKGFSITIFHTNFNKPKTSNYPHFTFRFILDNDPQDERISNLPTHGPLAGMRIPIINEHGADELRRELELLMLASEEDEEVSCLITDALWYFAQSVADSLNLRRLVLMTSSLFNFHAHVSLPQFDELGYLDPDDKTRLEEQASGFPMLKVKDIKSAYSNWQILKEILGKMIKQTKASSGVIWNSFKELEESELETVIREIPAPSFLIPLPKHLTASSSSLLDHDRTVIQWLDQQAPSSVLYVSFGSTSEVDEKDFLEIARGLVDSKQSFLWVVRPGFVKGSTWVEPLPDGFLGERGRVVKWVPQQEVLAHGAIGAFWTHSGWNSTLESVCEGVPMIFSDFGLDQPLNARYMSDVLKVGVYLENGWERGEIANAIRRVMVDEEGEYIRQNARVLKQKADVSLMKGGSSYESLESLVSYISSL | 18.6 | 5.8E+06 |
| UGT76G1var10: UGT76G1 variant, mutations A33G_L246F_Q342E (protein, UniProt Q6VAB4 1-458, looked up, variant A33G L246F Q342E) UDP-glycosyltransferase 76G1: MENKTETTVRRRRRIILFPVPFQGHINPILQLGNVLYSKGFSITIFHTNFNKPKTSNYPHFTFRFILDNDPQDERISNLPTHGPLAGMRIPIINEHGADELRRELELLMLASEEDEEVSCLITDALWYFAQSVADSLNLRRLVLMTSSLFNFHAHVSLPQFDELGYLDPDDKTRLEEQASGFPMLKVKDIKSAYSNWQILKEILGKMIKQTKASSGVIWNSFKELEESELETVIREIPAPSFLIPFPKHLTASSSSLLDHDRTVFQWLDQQPPSSVLYVSFGSTSEVDEKDFLEIARGLVDSKQSFLWVVRPGFVKGSTWVEPLPDGFLGERGRIVKWVPQEEVLAHGAIGAFWTHSGWNSTLESVCEGVPMIFSDFGLDQPLNARYMSDVLKVGVYLENGWERGEIANAIRRVMVDEEGEYIRQNARVLKQKADVSLMKGGSSYESLESLVSYISSL | 0.3 | −7.7E+02 |
